Where two headings read alike, the source gives them in different places.
Key:
TβRII ECD (Homo sapiens) = TβRII ECD (Homo sapiens) (UniProt P37173); conditions: cited from earlier work
human TGF-β2 (human) [1] = experiment: SPR
[2] = target: TGF-β2DM:TβRII binary complex (human) (UniProt P37173); experiment: SEC-MALS
human TGF-β2 (human) [3] = experiment: SPR; remark: listed apart in the source

TβRII ECD (Homo sapiens), sequence (P37173 23-166): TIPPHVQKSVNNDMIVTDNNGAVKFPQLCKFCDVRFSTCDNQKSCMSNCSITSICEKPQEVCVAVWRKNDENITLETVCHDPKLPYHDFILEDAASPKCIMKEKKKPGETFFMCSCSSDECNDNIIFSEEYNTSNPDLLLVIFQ

In the case of TGF-β2 (from UniProt P61812), the Kd (TβRII ECD (Homo sapiens)) is listed as 20000 nM.

“full-length zebrafish betaglycan ectodomain (domain or fragment)” gave a Kd (human TGF-β2 (human) [1]) of 4.95 nM, a koff (human TGF-β2 (human) [1]) of 0.00173 s⁻¹ and a kon (human TGF-β2 (human) [1]) of 350000 M⁻¹ s⁻¹. The stoichiometry N (BG (O-ZP) per TGF-β2DM dimer) [2] was 1.

Substance “zebrafish betaglycan ZP-C domain (domain or fragment)” has a KD1 (heterogeneous-ligand fit, ligand class 1) (human TGF-β2 (human) [1]) of 1100 nM, a KD2 (heterogeneous-ligand fit, ligand class 2) (human TGF-β2 (human) [1]) of 480 nM and a ka1 (heterogeneous-ligand fit, ligand class 1) (human TGF-β2 (human) [1]) of 480000 M⁻¹ s⁻¹. The kd1 (heterogeneous-ligand fit, ligand class 1) (human TGF-β2 (human) [1]) was 0.51 s⁻¹ and the kd2 (heterogeneous-ligand fit, ligand class 2) (human TGF-β2 (human) [1]) was 9300 s⁻¹.

Substance “zebrafish betaglycan orphan domain (domain or fragment)” has a Kd (human TGF-β2 (human) [1]) of 27 nM, a koff (human TGF-β2 (human) [1]) of 0.0288 s⁻¹ and a kon (human TGF-β2 (human) [1]) of 1.07e+06 M⁻¹ s⁻¹. It also gave a stoichiometry N (BGO per TGF-β2DM dimer) [2] of 1, a Kd (human TGF-β2 (human) [3]) of 15 nM and a koff (human TGF-β2 (human) [3]) of 0.00772 s⁻¹. For the same substance, the kon (human TGF-β2 (human) [3]) was 528000 M⁻¹ s⁻¹.
